US20220307010A1 (TWIST BIOSCIENCE, published 2022)

T1: TIGIT (T cell immunoreceptor with Ig and ITIM domains) (human, UniProt Q495A1 22-141, limits assumed)
T1 construct: also called hTIGIT; human TIGIT
T1 sequence (looked up): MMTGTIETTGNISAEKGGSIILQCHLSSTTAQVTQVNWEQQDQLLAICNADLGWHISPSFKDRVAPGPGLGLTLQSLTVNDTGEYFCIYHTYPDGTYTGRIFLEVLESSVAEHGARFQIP

T2: TIGIT (T cell immunoreceptor with Ig and ITIM domains) (human, UniProt Q495A1 22-141, limits assumed)
T2 construct: also called hTIGIT; human TIGIT
T2 sequence (looked up): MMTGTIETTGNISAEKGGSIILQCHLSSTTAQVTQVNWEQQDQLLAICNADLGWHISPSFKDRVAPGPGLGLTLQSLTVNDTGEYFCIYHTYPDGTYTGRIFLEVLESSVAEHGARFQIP


biological target: T1, TIGIT (T cell immunoreceptor with Ig …); experiment: ELISA

Row | ELISA | Binder
1 | 11.3 | TIGIT-211-15 (antibody, V domains shown) VH: EVQLLESGGGLVQPGGSLRLSCAASGFTFSSAAMSWVRQAPGKGLEWVSGISPSGGITTYADSVKGRFTISRDNSKNTLYLQMNSLRAEDTAVYYCASLSRGYWGQGTLVTVSS VL: DIQMTQSPSSLSASVGDRVTITCQSSQSVYSNNELSWYQQKPGKAPKLLIYGTSYRYSGVPSRFSGSGSGTDFTLTISSLQPEDFATYYCSSWAGSRSGTVFGQGTKVEIK
2 | 15 | TIGIT-211-13 (antibody, V domains shown) VH: EVQLLESGGGLVQPGGSLRLSCAASGFTFNKYPMMWVRQAPGKGLEWVSYISSSGSSTYYADSVKGRFTISRDNSKNTLYLQMNSLRAEDTAVYYCARVIAAAGAFDYWGQGTLVTVSS VL: DIQMTQSPSSLSASVGDRVTITCRASQSIREYLHWYQQKPGKAPKLLIYFGSELRKGVPSRFSGSGSGTDFTLTISSLQPEDFATYYCGQGVLWPATFGQGTKVEIK

biological target: T1, TIGIT (T cell immunoreceptor with Ig …); experiment: SPR kinetics

Row | Kd [nM] | koff [s⁻¹] | kon [M⁻¹ s⁻¹] | Binder
3 | 355 | 0.0756 | 213000 | TIGIT-211-95 (antibody, V domains shown) VH: EVQLLESGGGLVQPGGSLRLSCAASGFTFPKYGMAWVRQAPGKGLEWVSTISSGGGYTYYPDSVKGRFTISRDNSKNTLYLQMNSLRAEDTAVYYCARDTYLHFDYWGQGTLVTVSS VL: DIQMTQSPSSLSASVGDRVTITCRASQGVRTSLAWYQQKPGKAPKLLIYAKNNRPSGVPSRFSGSGSGTDFTLTISSLQPEDFATYYCQQSYSAPYTFGQGTKVEIK
4 | 301 | 0.00712 | 23600 | TIGIT-211-15 (antibody, V domains shown) VH: EVQLLESGGGLVQPGGSLRLSCAASGFTFSSAAMSWVRQAPGKGLEWVSGISPSGGITTYADSVKGRFTISRDNSKNTLYLQMNSLRAEDTAVYYCASLSRGYWGQGTLVTVSS VL: DIQMTQSPSSLSASVGDRVTITCQSSQSVYSNNELSWYQQKPGKAPKLLIYGTSYRYSGVPSRFSGSGSGTDFTLTISSLQPEDFATYYCSSWAGSRSGTVFGQGTKVEIK
5 | 574000 | 0.098 | 171 | TIGIT-211-98 (antibody, V domains shown) VH: EVQLLESGGGLVQPGGSLRLSCAASGFTFETYAMSWVRQAPGKGLEWVSVISGSGGRPNYADSVKGRFTISRDNSKNTLYLQMNSLRAEDTAVYYCAREGLWAFDYWGQGTLVTVSS VL: DIQMTQSPSSLSASVGDRVTITCRASHFIGSLLSWYQQKPGKAPKLLIYETSKLASGVPSRFSGSGSGTDFTLTISSLQPEDFATYYCQQSYSYPRTFGQGTKVEIK
6 | 683 | 0.0417 | 61000 | TIGIT-211-77 (antibody, V domains shown) VH: EVQLLESGGGLVQPGGSLRLSCAASGFTFGNYAMAWVRQAPGKGLEWVSSIWPSGGQTWYADSVKGRFTISRDNSKNTLYLQMNSLRAEDTAVYYCAKGGTSFDYWGQGTLVTVSS VL: DIQMTQSPSSLSASVGDRVTITCRASQSVRSYLNWYQQKPGKAPKLLIYAASSLYSGVPSRFSGSGSGTDFTLTISSLQPEDFATYYCQQYASVPVTFGQGTKVEIK
7 | 1240 | 0.0281 | 22700 | TIGIT-211-93 (antibody, V domains shown) VH: EVQLLESGGGLVQPGGSLRLSCAASGFTFSRYFMGWVRQAPGKGLEWVSEISPSGKKKYYADSVKGRFTISRDNSKNTLYLQMNSLRAEDTAVYYCAKSSFDKYNFDYWGQGTLVTVSS VL: DIQMTQSPSSLSASVGDRVTITCSASQDINKYLNWYQQKPGKAPKLLIYHTSRLQSGVPSRFSGSGSGTDFTLTISSLQPEDFATYYCQQFAYFPATFGQGTKVEIK
8 | 269000 | 0.105 | 389 | TIGIT-211-116 (antibody, V domains shown) VH: EVQLLESGGGLVQPGGSLRLSCAASGFTFSRYFMGWVRQAPGKGLEWVSAISGSGGNTYYADSVKGRFTISRDNSKNTLYLQMNSLRAEDTAVYYCARVWRNHLDYWGQGTLVTVSS VL: DIQMTQSPSSLSASVGDRVTITCRASQTIERRLNWYQQKPGKAPKLLIYHDNKRPSGVPSRFSGSGSGTDFTLTISSLQPEDFATYYCQQGYTLPWTFGQGTKVEIK
9 | 221 | 0.326 | 1.48e+06 | TIGIT-211-13 (antibody, V domains shown) VH: EVQLLESGGGLVQPGGSLRLSCAASGFTFNKYPMMWVRQAPGKGLEWVSYISSSGSSTYYADSVKGRFTISRDNSKNTLYLQMNSLRAEDTAVYYCARVIAAAGAFDYWGQGTLVTVSS VL: DIQMTQSPSSLSASVGDRVTITCRASQSIREYLHWYQQKPGKAPKLLIYFGSELRKGVPSRFSGSGSGTDFTLTISSLQPEDFATYYCGQGVLWPATFGQGTKVEIK

biological target: T2, TIGIT (T cell immunoreceptor with Ig …); experiment: SPR, VHH-V5-His

Row | Binder | koff [s⁻¹] | kon [M⁻¹ s⁻¹] | Kd [nM]
10 | TIGIT-29-01 VHH-V5-His (VHH, not shown: V5-His tag) VHH: EVQLVESGGGLVQAGGSLRLSCAASGRTFSNYAMGWFRQAPGKEREFVAAITWSGTRTDYADSVKGRFTISADNAKNTVYLQMNSLKPEDTAVYYCAAAAWTIYEYDYWGQGTQVTVSS | 0.01 | 30000 | –
11 | TIGIT-29-07 VHH-V5-His (VHH, not shown: V5-His tag) VHH: EVQLVESGGGLVQAGGSLRLSCAASGSIFSNYAMGWFRQAPGKEREFVATISRGGTRTNYADSVKGRFTISADNAKNTVYLQMNSLKPEDTAVYYCAAAAWTIYAYNYWGQGTQVTVSS | 0.004 | 8000 | –
12 | TIGIT-29-12 VHH-V5-His (VHH, not shown: V5-His tag) VHH: EVQLVESGGGLVQAGGSLRLSCAASGSTFSSYAMGWFRQAPGKEREFVAAITWSGTRTNYADSVKGRFTISADNAKNTVYLQMNSLKPEDTAVYYCAAAAWTIYTYDSWGQGTQVTVSS | 0.1 | 10000 | –
13 | TIGIT-29-33 VHH-V5-His (VHH, not shown: V5-His tag) VHH: EVQLVESGGGLVQAGGSLRLSCAASGFIFSTYAMGWFRQAPGKERELVSAITRSGITTYYADSVKGRFTISADNAKNTVYLQMNSLKPEDTAVYYCAAAAWTIYEYDYWGQGTQVTVSS | 0.04 | 20000 | 1520
14 | TIGIT-29-30 VHH-V5-His (VHH, not shown: V5-His tag) VHH: EVQLVESGGGLVQAGGSLRLSCAASGFTFSSYAMGWFRQAPGKEREFVAAITWSGTRTDYADSVKGRFTISADNAKNTVYLQMNSLKPEDTAVYYCAAAAWRYSEYDYWGQGTQVTVSS | 0.08 | 300000 | –
15 | TIGIT-29-06 VHH-V5-His (VHH, not shown: V5-His tag) VHH: EVQLVESGGGLVQAGGSLRLSCAASGGTFRSYVMGWFRQAPGKEREWVATINSSGSRTYYADSVKGRFTISADNAKNTVYLQMNSLKPEDTAVYYCAARPNYRDYEYWGQGTQVTVSS | 0.02 | – | 433000
16 | TIGIT-29-18 VHH-V5-His (VHH, not shown: V5-His tag) VHH: EVQLVESGGGLVQAGGSLRLSCAASGSTFSNYAMGWFRQAPGKEREFVSAINSSGSRTYYADSVKGRFTISADNAKNTVYLQMNSLKPEDTAVYYCAARLWGTWTAGDYDYWGQGTQVTVSS | 0.007 | 20000 | –
17 | TIGIT-29-22 VHH-V5-His (VHH, not shown: V5-His tag) VHH: EVQLVESGGGLVQAGGSLRLSCAASGSILSSYTMGWFRQAPGKEREFVSTISRSSTRTYYADSVKGRFTISADNAKNTVYLQMNSLKPEDTAVYYCAARLWGTWTAGDYDYWGQGTQVTVSS | 0.003 | 6000 | –
18 | TIGIT-29-34 VHH-V5-His (VHH, not shown: V5-His tag) VHH: EVQLVESGGGLVQAGGSLRLSCAASGFTFRNYAMGWFRQAPGKEREFVSSISSSSSRTSYADSVKGRFTISADNAKNTVYLQMNSLKPEDTAVYYCAARLWGTWTAGDYDYWGQGTQVTVSS | 0.03 | 30000 | –
19 | TIGIT-30-43 VHH-V5-His (VHH, not shown: V5-His tag) VHH: EVQLVESGGGLVQAGGSLRLSCAASGFTFSTSWMGWFRQAPGKERELVAARNSGGNTNYADSVKGRFTISADNAKNTVYLQMNSLKPEDTAVYYCAADVWYGSTWRNWGQGTQVTVSS | 0.008 | 70000 | –
20 | TIGIT-30-01 VHH-V5-His (VHH, not shown: V5-His tag) VHH: EVQLVESGGGLVQAGGSLRLSCAASGFAFSSYWMGWFRQAPGKERELVAARNSGGNTNYADSVKGRFTISADNAKNTVYLQMNSLKPEDTAVYYCAADVWYGSTWRNWGQGTQVTVSS | 0.08 | 10000 | –
21 | TIGIT-29-10 VHH-V5-His (VHH, not shown: V5-His tag) VHH: EVQLVESGGGLVQAGGSLRLSCAASGRTFSNYGMGWFRQAPGKEREFVSGISGSGGRTSYADSVKGRFTISADNAKNTVYLQMNSLKPEDTAVYYCAANLWYPVDRLNTGFNYWGQGTQVTVSS | 0.003 | 10000 | –

More lines, now with the values ahead:

Row | koff [s⁻¹] | kon [M⁻¹ s⁻¹] | Kd [nM] | Binder
22 | 0.1 | 30000 | 4240 | TIGIT-30-52 VHH-V5-His (VHH, not shown: V5-His tag) VHH: EVQLVESGGGLVQAGGSLRLSCAASGRTFSNYFMGWFRQAPGKERESVATVTWRDNITYYADSVKGRFTISADNAKNTVYLQMNSLKPEDTAVYYCASAGRWGQGTQVTVSS
23 | 0.006 | 10000 | 387 | TIGIT-30-30 VHH-V5-His (VHH, not shown: V5-His tag) VHH: EVQLVESGGGLVQAGGSLRLSCAASGGTFSGRGMGWFRQAPGKEREWVSSVYIFGGSTYYADSVKGRFTISADNAKNTVYLQMNSLKPEDTAVYYCANSNKPKFDWGQGTQVTVSS
24 | 0.006 | 30000 | – | TIGIT-30-40 VHH-V5-His (VHH, not shown: V5-His tag) VHH: EVQLVESGGGLVQAGGSLRLSCAASGFTFSGNWMGWFRQAPGKEREWVVGISSGGSTHYADSVKGRFTISADNAKNTVYLQMNSLKPEDTAVYYCAADVWYGSTWRNWGQGTQVTVSS
25 | 0.002 | 10000 | – | TIGIT-30-20 VHH-V5-His (VHH, not shown: V5-His tag) VHH: EVQLVESGGGLVQAGGSLRLSCAASGPTFSIYDMGWFRQAPGKEREFVAVINWSRGSTFYADSVKGRFTISADNAKNTVYLQMNSLKPEDTAVYYCAAGVWSSLRHTAANWGQGTQVTVSS
26 | 0.08 | 90000 | – | TIGIT-30-49 VHH-V5-His (VHH, not shown: V5-His tag) VHH: EVQLVESGGGLVQAGGSLRLSCAASGNIFSRYIMGWFRQAPGKEREWVAGISNGGTTKYADSVKGRFTISADNAKNTVYLQMNSLKPEDTAVYYCAQGWKIVPTNWGQGTQVTVSS
27 | 0.004 | 20000 | – | TIGIT-30-15 VHH-V5-His (VHH, not shown: V5-His tag) VHH: EVQLVESGGGLVQAGGSLRLSCAASGFTFSGNWMGWFRQAPGKEREWVSGISSGGGRTYYADSVKGRFTISADNAKNTVYLQMNSLKPEDTAVYYCAADVWYGSTWRNWGQGTQVTVSS
